What was measured:
[1] = molecular target: the molecule itself; experiment: SEC-SAXS; 50 µL at 8.5-10 mg/mL on a BioSEC3-300 column, 25 mM HEPES pH 7.5, 300 mM NaCl, +15 °C; monomer to dimer
[2] = molecular target: the molecule itself; experiment: crystal structure; wild-type GDAP1Δ295-358, new crystal form, +8 °C, 200 mM NH4 formate, 25% PEG3350, 8.64 mg/mL protein

B1: GDAP1Δ303‐358 R120W (domain or fragment, human, UniProt Q8TB36 1-302, looked up)
chain: MAERQEEQRGSPPLRAEGKADAEVKLILYHWTHSFSSQKVRLVIAEKALKCEEHDVSLPLSEHNEPWFMRLNSTGEVPVLIHGENIICEATQIIDYLEQTFLDERTPRLMPDKESMYYPWVQHYRELLDSLPMDAYTHGCILHPELTVDSMIPAYATTRIRSQIGNTESELKKLAEENPDLQEAYIAKQKRLKSKLLDHDNVKYLKKILDELEKVLDQVETELQRRNEETPEEGQQPWLCGESFTLADVSLAVTLHRLKFLGFARRNWGNGKRPNLETYYERVLKRKTFNKVLGHVNNILIS
notes: GDAP1, human; printed as GDAP1Δ303-358 (residues 303-358 deleted) with the CMT2K-linked mutation R120W; Disease mutation that occurs in patients; also called R120W GDAP1; GDAP1∆303‐358 R120W; source: E. coli BL21(DE3), purified (Ni-NTA, TEV cleavage, second Ni-NTA, SEC); not shown: His6, N-terminal, cleaved
stoichiometry N [1]: 2

B2: GDAP1Δ303‐358 H123R (domain or fragment, human, UniProt Q8TB36 1-302, looked up)
chain: MAERQEEQRGSPPLRAEGKADAEVKLILYHWTHSFSSQKVRLVIAEKALKCEEHDVSLPLSEHNEPWFMRLNSTGEVPVLIHGENIICEATQIIDYLEQTFLDERTPRLMPDKESMYYPRVQRYRELLDSLPMDAYTHGCILHPELTVDSMIPAYATTRIRSQIGNTESELKKLAEENPDLQEAYIAKQKRLKSKLLDHDNVKYLKKILDELEKVLDQVETELQRRNEETPEEGQQPWLCGESFTLADVSLAVTLHRLKFLGFARRNWGNGKRPNLETYYERVLKRKTFNKVLGHVNNILIS
notes: GDAP1, human; printed as GDAP1Δ303-358 (residues 303-358 deleted) with the Finnish founder CMT2K mutation H123R; Disease mutation that occurs in patients; also called H123R GDAP1; GDAP1∆303‐358 H123R; source: E. coli BL21(DE3), purified (Ni-NTA, TEV cleavage, second Ni-NTA, SEC); not shown: His6, N-terminal, cleaved
stoichiometry N [1]: 2

B3: GDAP1Δ295‐358 wild type (domain or fragment, human, UniProt Q8TB36 1-294, looked up)
chain: MAERQEEQRGSPPLRAEGKADAEVKLILYHWTHSFSSQKVRLVIAEKALKCEEHDVSLPLSEHNEPWFMRLNSTGEVPVLIHGENIICEATQIIDYLEQTFLDERTPRLMPDKESMYYPRVQHYRELLDSLPMDAYTHGCILHPELTVDSMIPAYATTRIRSQIGNTESELKKLAEENPDLQEAYIAKQKRLKSKLLDHDNVKYLKKILDELEKVLDQVETELQRRNEETPEEGQQPWLCGESFTLADVSLAVTLHRLKFLGFARRNWGNGKRPNLETYYERVLKRKTFNKVLG
notes: GDAP1, human; printed as GDAP1Δ295-358 (residues 295-358 deleted); also called wtGDAP1Δ295‐358; GDAPΔ295‐358; source: E. coli BL21(DE3), purified (Ni-NTA, TEV cleavage, second Ni-NTA, SEC on Superdex 200); not shown: His6, N-terminal, cleaved
binding result [2]: binds

From article PMC9249340 (FEBS Open Bio, 2022)
